Holding throughout (experiment): EMSA
Common to all, as to settings: derived from FIG. 2D

The target of data set [1] is T1, XylR P363S P363S (Escherichia coli) (UniProt P0ACI3).
T1 sequence: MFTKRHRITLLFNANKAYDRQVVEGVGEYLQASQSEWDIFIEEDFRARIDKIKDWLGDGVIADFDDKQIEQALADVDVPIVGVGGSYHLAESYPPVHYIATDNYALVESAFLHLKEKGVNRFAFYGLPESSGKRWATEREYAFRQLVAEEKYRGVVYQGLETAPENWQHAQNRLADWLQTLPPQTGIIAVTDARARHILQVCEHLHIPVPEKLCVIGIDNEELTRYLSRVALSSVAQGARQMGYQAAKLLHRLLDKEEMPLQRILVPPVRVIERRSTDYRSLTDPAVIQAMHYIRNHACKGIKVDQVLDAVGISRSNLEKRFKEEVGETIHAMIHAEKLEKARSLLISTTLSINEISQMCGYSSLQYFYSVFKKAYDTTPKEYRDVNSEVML

Data set [2] concerns the target T2, XylR wild-type (Escherichia coli) (UniProt P0ACI3).
T2 sequence: T1 sequence with S363P

Data set [3] has as its target T3, XylR R121C R121C (Escherichia coli) (UniProt P0ACI3).
T3 sequence: T1 sequence with R121C, S363P

As a reminder, the Kd is the constant that tells how readily two partners part at equilibrium.

Substitutions are numbered along the chain they refer to.

Consider XylR binding site IF, for which the equilibrium dissociation constant (Kd) in data set [1] (value as printed) stood at 27 nM; in data set [2], 19.6 nM; in data set [3], 4 nM.
Regarding XylR binding site IA, the dissociation constant (Kd) amounted to 12.4 nM in data set [1], 38.5 nM in data set [2] and 2.7 nM in data set [3].

The values above are taken from patent publication US20160362456.
